One block for each binder: values may come before it.
Target: T1, FcγRIIIa extracellular domain, C-terminal His tag (human, UniProt P08637 17-208)
T1 construct: extracellular domain; also called 3a
Experiment: SPR, binding activity relative to GpH7-A5/GpH7-B3/GpL16-k0 (=100)

T1 sequence (P08637 other isoform, or with tags, fused parts or gaps): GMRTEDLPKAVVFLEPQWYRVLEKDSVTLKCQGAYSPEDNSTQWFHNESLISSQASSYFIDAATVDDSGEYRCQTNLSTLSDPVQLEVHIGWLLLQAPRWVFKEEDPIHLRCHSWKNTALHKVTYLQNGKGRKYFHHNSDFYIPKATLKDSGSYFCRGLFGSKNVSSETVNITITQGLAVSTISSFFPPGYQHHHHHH

B1: GpH7-A5/GpH7-B3 variant I332_10E/GpL16-k0 (antibody, human IgG1, kappa)
heavy 1: not shown
heavy 2: not shown
light: DIVMTQSPLSLPVTPGEPASISCQASESLVHSNRNTYLHWYLQKPGQSPQLLIYKVSNRFSGVPDRFSGSGSGTDFTLKISRVEAEDVGVYYCSQNTHVPPTFGQGTKVEIERTVAAPSVFIFPPSDEQLKSGTASVVCLLNNFYPREAKVQWKVDNALQSGNSQESVTEQDSKDSTYSLSSTLTLSKADYEKHKVYACEVTHQGLSSPVTKSFNRGEC
notes: He Ab; copies: 1 + 1 + 2
He/Con 3a: 213%

B3: GpH7-A5/GpH7-B3 variant G237_14T/GpL16-k0 (antibody, human IgG1, kappa)
heavy 1: not shown
heavy 2: not shown
light: B1 light
notes: He Ab; copies: 1 + 1 + 2
He/Con 3a: 50.5%

B4: GpH7-A5/GpH7-B3 variant K326_20W/GpL16-k0 (antibody, human IgG1, kappa)
heavy 1: not shown
heavy 2: not shown
light: B1 light
notes: He Ab; copies: 1 + 1 + 2
He/Con 3a: 93.7%

B6: GpH7-A5/GpH7-B3 variant K326_14T/GpL16-k0 (antibody, human IgG1, kappa)
heavy 1: not shown
heavy 2: not shown
light: B1 light
notes: He Ab; copies: 1 + 1 + 2
He/Con 3a: 140%

B8: GpH7-A5/GpH7-B3 variant L234_06M/GpL16-k0 (antibody, human IgG1, kappa)
heavy 1: not shown
heavy 2: not shown
light: B1 light
notes: He Ab; copies: 1 + 1 + 2
He/Con 3a: 82.9%

B9: GpH7-A5/GpH7-B3 variant H268_10E/GpL16-k0 (antibody, human IgG1, kappa)
heavy 1: not shown
heavy 2: not shown
light: B1 light
notes: He Ab; copies: 1 + 1 + 2
He/Con 3a: 184%

B10: GpH7-A5/GpH7-B3 variant K326_13S/GpL16-k0 (antibody, human IgG1, kappa)
heavy 1: not shown
heavy 2: not shown
light: B1 light
notes: He Ab; copies: 1 + 1 + 2
He/Con 3a: 118%

B13: GpH7-A5/GpH7-B3 variant K326_12R/GpL16-k0 (antibody, human IgG1, kappa)
heavy 1: not shown
heavy 2: not shown
light: B1 light
notes: He Ab; copies: 1 + 1 + 2
He/Con 3a: 101%

B14: GpH7-A5/GpH7-B3 variant K326_02A/GpL16-k0 (antibody, human IgG1, kappa)
heavy 1: not shown
heavy 2: not shown
light: B1 light
notes: He Ab; copies: 1 + 1 + 2
He/Con 3a: 130%

B16: GpH7-A5/GpH7-B3 variant H268_14T/GpL16-k0 (antibody, human IgG1, kappa)
heavy 1: not shown
heavy 2: not shown
light: B1 light
notes: He Ab; copies: 1 + 1 + 2
He/Con 3a: 90.3%

B17: GpH7-A5/GpH7-B3 variant H268_18N/GpL16-k0 (antibody, human IgG1, kappa)
heavy 1: not shown
heavy 2: not shown
light: B1 light
notes: He Ab; copies: 1 + 1 + 2
He/Con 3a: 103%

B18: GpH7-A5/GpH7-B3 variant H268_01G/GpL16-k0 (antibody, human IgG1, kappa)
heavy 1: not shown
heavy 2: not shown
light: B1 light
notes: He Ab; copies: 1 + 1 + 2
He/Con 3a: 95.7%

B19: GpH7-A5/GpH7-B3 variant I332_16H/GpL16-k0 (antibody, human IgG1, kappa)
heavy 1: not shown
heavy 2: not shown
light: B1 light
notes: He Ab; copies: 1 + 1 + 2
He/Con 3a: 89%

B25: GpH7-A5/GpH7-B3 variant L234_10E/GpL16-k0 (antibody, human IgG1, kappa)
heavy 1: not shown
heavy 2: not shown
light: B1 light
notes: He Ab; copies: 1 + 1 + 2
He/Con 3a: 111%

B26: GpH7-A5/GpH7-B3 variant H268_09D/GpL16-k0 (antibody, human IgG1, kappa)
heavy 1: not shown
heavy 2: not shown
light: B1 light
notes: He Ab; copies: 1 + 1 + 2
He/Con 3a: 195%

B27: GpH7-A5/GpH7-B3 variant G236_20W/GpL16-k0 (antibody, human IgG1, kappa)
heavy 1: not shown
heavy 2: not shown
light: B1 light
notes: He Ab; copies: 1 + 1 + 2
He/Con 3a: 126%

B28: GpH7-A5/GpH7-B3 variant K326_03V/GpL16-k0 (antibody, human IgG1, kappa)
heavy 1: not shown
heavy 2: not shown
light: B1 light
notes: He Ab; copies: 1 + 1 + 2
He/Con 3a: 135%

B31: GpH7-A5/GpH7-B3 variant K326_10E/GpL16-k0 (antibody, human IgG1, kappa)
heavy 1: not shown
heavy 2: not shown
light: B1 light
notes: He Ab; copies: 1 + 1 + 2
He/Con 3a: 138%

Results, then the binder that gave them:

He/Con 3a: 96.5%
B2: GpH7-A5/GpH7-B3 variant H268_15Y/GpL16-k0 (antibody, human IgG1, kappa)
heavy 1: not shown
heavy 2: not shown
light: B1 light
notes: He Ab; copies: 1 + 1 + 2

He/Con 3a: 103%
B5: GpH7-A5/GpH7-B3 variant I332_02A/GpL16-k0 (antibody, human IgG1, kappa)
heavy 1: not shown
heavy 2: not shown
light: B1 light
notes: He Ab; copies: 1 + 1 + 2

He/Con 3a: 124%
B7: GpH7-A5/GpH7-B3 variant K326_15Y/GpL16-k0 (antibody, human IgG1, kappa)
heavy 1: not shown
heavy 2: not shown
light: B1 light
notes: He Ab; copies: 1 + 1 + 2

He/Con 3a: 106%
B11: GpH7-A5/GpH7-B3 variant K326_16H/GpL16-k0 (antibody, human IgG1, kappa)
heavy 1: not shown
heavy 2: not shown
light: B1 light
notes: He Ab; copies: 1 + 1 + 2

He/Con 3a: 113%
B12: GpH7-A5/GpH7-B3 variant L234_09D/GpL16-k0 (antibody, human IgG1, kappa)
heavy 1: not shown
heavy 2: not shown
light: B1 light
notes: He Ab; copies: 1 + 1 + 2

He/Con 3a: 112%
B15: GpH7-A5/GpH7-B3 variant G236_15Y/GpL16-k0 (antibody, human IgG1, kappa)
heavy 1: not shown
heavy 2: not shown
light: B1 light
notes: He Ab; copies: 1 + 1 + 2

He/Con 3a: 117%
B20: GpH7-A5/GpH7-B3 variant K326_19Q/GpL16-k0 (antibody, human IgG1, kappa)
heavy 1: not shown
heavy 2: not shown
light: B1 light
notes: He Ab; copies: 1 + 1 + 2

He/Con 3a: 148%
B21: GpH7-A5/GpH7-B3 variant K326_09D/GpL16-k0 (antibody, human IgG1, kappa)
heavy 1: not shown
heavy 2: not shown
light: B1 light
notes: He Ab; copies: 1 + 1 + 2

He/Con 3a: 127%
B22: GpH7-A5/GpH7-B3 variant K326_06M/GpL16-k0 (antibody, human IgG1, kappa)
heavy 1: not shown
heavy 2: not shown
light: B1 light
notes: He Ab; copies: 1 + 1 + 2

He/Con 3a: 79.5%
B23: GpH7-A5/GpH7-B3 variant H268_06M/GpL16-k0 (antibody, human IgG1, kappa)
heavy 1: not shown
heavy 2: not shown
light: B1 light
notes: He Ab; copies: 1 + 1 + 2

He/Con 3a: 76%
B24: GpH7-A5/GpH7-B3 variant H268_12R/GpL16-k0 (antibody, human IgG1, kappa)
heavy 1: not shown
heavy 2: not shown
light: B1 light
notes: He Ab; copies: 1 + 1 + 2

He/Con 3a: 121%
B29: GpH7-A5/GpH7-B3 variant H268_13S/GpL16-k0 (antibody, human IgG1, kappa)
heavy 1: not shown
heavy 2: not shown
light: B1 light
notes: He Ab; copies: 1 + 1 + 2

He/Con 3a: 82%
B30: GpH7-A5/GpH7-B3 variant H268_20W/GpL16-k0 (antibody, human IgG1, kappa)
heavy 1: not shown
heavy 2: not shown
light: B1 light
notes: He Ab; copies: 1 + 1 + 2
